B1: Atypical chemokine receptor 2 (Homo sapiens), O00590 (parent)
chain: MAATASPQPLATEDADSENSSFYYYDYLDEVAFMLCRKDAVVSFGKVFLPVFYSLIFVLGLSGNLLLLMVLLRYVPRRRMVEIYLLNLAISNLLFLVTLPFWGISVAWHWVFGSFLCKMVSTLYTINFYSGIFFISCMSLDKYLEIVHAQPYHRLRTRAKSLLLATIVWAVSLAVSIPDMVFVQTHENPKGVWNCHADFGGHGTIWKLFLRFQQNLLGFLLPLLAMIFFYSRIGCVLVRLRPAGQGRALKIAAALVVAFFVLWFPYNLTLFLHTLLDLQVFGNCEVSQHLDYALQVTESIAFLHCCFSPILYAFSSHRFRQYLKAFLAAVLGWHLAPGTAQASLSSCSESSILTAQEEMTGMNDLGERQSENYPNKEDVGNKSA
B2: Isoform 2 of Synaptoporin (Homo sapiens), Q8TBG9-2 (parent)
chain: MDPVSQLASAGTFRVLKEPLAFLRALELLFAIFAFATCGGYSGGLRLSVDCVNKTESNLSIDIAFAYPFRLHQVTFEVPTCEGKERQKLALIGDSSSSAEFFVTVAVFAFLYSLAATVVYIFFQNKYRENNRGPLIDFIVTVVFSFLWLVGSSAWAKGLSDVKVATDPKEVLLLMSACKQPSNKCMAIHSPVMSSLNTSVVFGFLNFILWAGNIWFVFKETGWHSSGQRYLSDPMEKHSSSYNQGGYNQDSYGSSSGYSQQASLGPTSDEFGQQPTGPTSFTNQI
partner: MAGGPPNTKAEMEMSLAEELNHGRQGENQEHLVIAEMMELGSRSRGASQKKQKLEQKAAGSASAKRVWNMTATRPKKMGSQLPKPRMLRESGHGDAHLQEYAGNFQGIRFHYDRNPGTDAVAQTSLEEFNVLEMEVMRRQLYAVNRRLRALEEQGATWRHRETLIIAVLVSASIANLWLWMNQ
B3: E3 ubiquitin-protein ligase LNX (Homo sapiens), Q8TBB1 (parent)
chain: MNQPESANDPEPLCAVCGQAHSLEENHFYSYPEEVDDDLICHICLQALLDPLDTPCGHTYCTLCLTNFLVEKDFCPMDRKPLVLQHCKKSSILVNKLLNKLLVTCPFREHCTQVLQRCDLEHHFQTSCKGASHYGLTKDRKRRSQDGCPDGCASLTATAPSPEVSAAATISLMTDEPGLDNPAYVSSAEDGQPAISPVDSGRSNRTRARPFERSTIRSRSFKKINRALSVLRRTKSGSAVANHADQGRENSENTTAPEVFPRLYHLIPDGEITSIKINRVDPSESLSIRLVGGSETPLVHIIIQHIYRDGVIARDGRLLPGDIILKVNGMDISNVPHNYAVRLLRQPCQVLWLTVMREQKFRSRNNGQAPDAYRPRDDSFHVILNKSSPEEQLGIKLVRKVDEPGVFIFNVLDGGVAYRHGQLEENDRVLAINGHDLRYGSPESAAHLIQASERRVHLVVSRQVRQRSPDIFQEAGWNSNGSWSPGPGERSNTPKPLHPTITCHEKVVNIQKDPGESLGMTVAGGASHREWDLPIYVISVEPGGVISRDGRIKTGDILLNVDGVELTEVSRSEAVALLKRTSSSIVLKALEVKEYEPQEDCSSPAALDSNHNMAPPSDWSPSWVMWLELPRCLYNCKDIVLRRNTAGSLGFCIVGGYEEYNGNKPFFIKSIVEGTPAYNDGRIRCGDILLAVNGRSTSGMIHACLARLLKELKGRITLTIVSWPGTFL
partner: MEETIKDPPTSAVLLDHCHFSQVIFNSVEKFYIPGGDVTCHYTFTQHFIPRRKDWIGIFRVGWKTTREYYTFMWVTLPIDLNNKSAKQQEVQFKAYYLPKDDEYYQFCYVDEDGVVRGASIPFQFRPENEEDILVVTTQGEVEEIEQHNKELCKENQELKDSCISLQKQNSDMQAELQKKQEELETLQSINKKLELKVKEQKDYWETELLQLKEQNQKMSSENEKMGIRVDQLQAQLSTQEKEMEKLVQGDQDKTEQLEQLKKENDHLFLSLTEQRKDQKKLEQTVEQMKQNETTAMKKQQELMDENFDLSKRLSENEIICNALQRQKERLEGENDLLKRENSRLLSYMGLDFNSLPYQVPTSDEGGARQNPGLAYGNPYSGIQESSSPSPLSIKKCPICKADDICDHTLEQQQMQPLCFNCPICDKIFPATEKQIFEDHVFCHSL
B4: Zinc finger and BTB domain-containing protein 49 (Homo sapiens), Q6ZSB9 (parent)
chain: MDPVATHSCHLLQQLHEQRIQGLLCDCMLVVKGVCFKAHKNVLAAFSQYFRSLFQNSSSQKNDVFHLDVKNVSGIGQILDFMYTSHLDLNQDNIQVMLDTAQCLQVQNVLSLCHTFLKSATVVQPPGMPCNSTLSLQSTLTPDATCVISENYPPHLLQECSADAQQNKTLDESHPHASPSVNRHHSAGEISKQAPDTSDGSCTELPFKQPNYYYKLRNFYSKQYHKHAAGPSQERVVEQPFAFSTSTDLTTVESQPCAVSHSECILESPEHLPSNFLAQPVNDSAPHPESDATCQQPVKQMRLKKAIHLKKLNFLKSQKYAEQVSEPKSDDGLTKRLESASKNTLEKASSQSAEEKESEEVVSCENFNCISETERPEDPAALEDQSQTLQSQRQYACELCGKPFKHPSNLELHKRSHTGEKPFECNICGKHFSQAGNLQTHLRRHSGEKPYICEICGKRFAASGDVQRHIIIHSGEKPHLCDICGRGFSNFSNLKEHKKTHTADKVFTCDECGKSFNMQRKLVKHRIRHTGERPYSCSACGKCFGGSGDLRRHVRTHTGEKPYTCEICNKCFTRSAVLRRHKKMHCKAGDESPDVLEELSQAIETSDLEKSQSSDSFSQDTSVTLMPVSVKLPVHPVENSVAEFDSHSGGSYCKLRSMIQPHGVSDQEKLSLDPGKLAKPQMQQTQPQAYAYSDVDTPAGGEPLQADGMAMIRSSLAALDNHGGDPLGSRASSTTYRNSEGQFFSSMTLWGLAMKTLQNENELDQ
B5: Angio-associated migratory cell protein (Homo sapiens), Q13685 (parent)
chain: MESESESGAAADTPPLETLSFHGDEEIIEVVELDPGPPDPDDLAQEMEDVDFEEEEEEEGNEEGWVLEPQEGVVGSMEGPDDSEVTFALHSASVFCVSLDPKTNTLAVTGGEDDKAFVWRLSDGELLFECAGHKDSVTCAGFSHDSTLVATGDMSGLLKVWQVDTKEEVWSFEAGDLEWMEWHPRAPVLLAGTADGNTWMWKVPNGDCKTFQGPNCPATCGRVLPDGKRAVVGYEDGTIRIWDLKQGSPIHVLKGTEGHQGPLTCVAANQDGSLILTGSVDCQAKLVSATTGKVVGVFRPETVASQPSLGEGEESESNSVESLGFCSVMPLAAVGYLDGTLAIYDLATQTLRHQCQHQSGIVQLLWEAGTAVVYTCSLDGIVRLWDARTGRLLTDYRGHTAEILDFALSKDASLVVTTSGDHKAKVFCVQRPDR
B6: Glucosamine-6-phosphate deaminase 2 (Homo sapiens), Q8TDQ7 (parent)
chain: MRLVILDNYDLASEWAAKYICNRIIQFKPGQDRYFTLGLPTGSTPLGCYKKLIEYHKNGHLSFKYVKTFNMDEYVGLPRNHPESYHSYMWNNFFKHIDIDPNNAHILDGNAADLQAECDAFENKIKEAGGIDLFVGGIGPDGHIAFNEPGSSLVSRTRLKTLAMDTILANAKYFDGDLSKVPTMALTVGVGTVMDAREVMILITGAHKAFALYKAIEEGVNHMWTVSAFQQHPRTIFVCDEDATLELRVKTVKYFKGLMHVHNKLVDPLFSMKDGN
partner: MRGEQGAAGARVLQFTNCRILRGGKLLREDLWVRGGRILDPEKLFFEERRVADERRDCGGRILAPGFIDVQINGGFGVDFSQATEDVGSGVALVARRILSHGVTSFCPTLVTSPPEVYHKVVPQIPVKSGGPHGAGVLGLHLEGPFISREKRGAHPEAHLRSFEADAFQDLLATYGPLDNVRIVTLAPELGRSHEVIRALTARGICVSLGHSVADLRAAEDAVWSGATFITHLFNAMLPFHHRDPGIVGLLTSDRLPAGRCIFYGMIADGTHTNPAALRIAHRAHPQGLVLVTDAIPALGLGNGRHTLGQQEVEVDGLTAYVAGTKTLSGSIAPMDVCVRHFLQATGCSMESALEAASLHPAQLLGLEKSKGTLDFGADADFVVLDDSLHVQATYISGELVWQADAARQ

Variants of: B1
Conditions: with creb3_human CREB3, O43889
Sequence of creb3_human CREB3, O43889 (O43889 whole entry): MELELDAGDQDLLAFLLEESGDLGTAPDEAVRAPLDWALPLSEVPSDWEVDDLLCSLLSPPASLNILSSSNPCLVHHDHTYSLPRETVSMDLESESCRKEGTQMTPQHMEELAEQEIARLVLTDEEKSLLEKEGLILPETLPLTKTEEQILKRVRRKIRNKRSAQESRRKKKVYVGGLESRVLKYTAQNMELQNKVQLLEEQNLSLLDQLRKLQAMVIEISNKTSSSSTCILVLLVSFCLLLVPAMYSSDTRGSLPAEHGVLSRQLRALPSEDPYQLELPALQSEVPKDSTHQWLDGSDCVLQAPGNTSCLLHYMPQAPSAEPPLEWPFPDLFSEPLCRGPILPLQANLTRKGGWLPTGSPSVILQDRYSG

Variant	effect of a mutation on the interaction
V42M	with no effect

Variants of: B2
Conditions: with fate1_human FATE1, Q969F0

Variant	effect of a mutation on the interaction
A115P	with no effect

Variants of: B3
Conditions: with caco2_human CALCOCO2, Q13137

Variant	effect of a mutation on the interaction
E295K	disrupting interaction strength

Variants of: B4
Conditions: with gopc_human GOPC

Variant	effect of a mutation on the interaction
D88V	with no effect

Variants of: B5
Conditions: with bhe40_human BHLHE40, O14503
Sequence of bhe40_human BHLHE40, O14503 (O14503 whole entry): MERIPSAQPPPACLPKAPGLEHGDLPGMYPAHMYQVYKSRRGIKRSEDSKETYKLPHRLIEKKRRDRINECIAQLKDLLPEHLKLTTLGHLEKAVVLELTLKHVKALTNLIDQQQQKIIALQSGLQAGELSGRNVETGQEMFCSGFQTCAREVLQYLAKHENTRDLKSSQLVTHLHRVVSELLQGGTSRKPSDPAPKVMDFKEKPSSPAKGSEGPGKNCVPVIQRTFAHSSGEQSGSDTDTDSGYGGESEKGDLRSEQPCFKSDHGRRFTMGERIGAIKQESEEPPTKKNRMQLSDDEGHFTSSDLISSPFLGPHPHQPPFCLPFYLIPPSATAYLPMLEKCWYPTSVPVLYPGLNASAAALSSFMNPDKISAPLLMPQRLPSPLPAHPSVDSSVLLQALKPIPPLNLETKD

Variant	effect of a mutation on the interaction
I343F	with no effect

Variants of: B6
Conditions: with naga_human AMDHD2, Q9Y303

Variant	effect of a mutation on the interaction
I216V	with no effect

Reference: IntAct's records for PubMed 29892012
